Reference: article PMC5515730 (Nature Structural & Molecular Biology, 2016)

Target: the molecule itself
Test: cryo-EM structure

B1: HCoV-NL63 spike (S) glycoprotein ectodomain fused to a GCN4 trimerization motif (domain or fragment)
chain: FFTCNSNANLSMLQLGVPDNSSTIVTGLLPTHWFCANQSTSVYSANGFFYIDVGNHRSAFALHTGYYDANQYYIYVTNEIGLNASVTLKICKFSRNTTFDFLSNASSSFDCIVNLLFTEQLGAPLGITISGETVRLHLYNVTRTFYVPAAYKLTKLSVKCYFNYSCVFSVVNATVTVNVTTHNGRVVNYTVCDDCNGYTDNIFSVQQDGRIPNGFPFNNWFLLTNGSTLVDGVSRLYQPLRLTCLWPVPGLKSSTGFVYFNATGSDVNCNGYQHNSVVDVMRYNLNFSANSLDNLKSGVIVFKTLQYDVLFYCSNSSSGVLDTTIPFGPSSQPYYCFINSTINTTHVSTFVGILPPTVREIVVARTGQFYINGFKYFDLGFIEAVNFNVTTASATDFWTVAFATFVDVLVNVSATNIQNLLYCDSPFEKLQCEHLQFGLQDGFYSANFLDDNVLPETYVALPIYYQHTDINFTATASFGGSCYVCKPHQVNISLNGNTSVCVRTSHFSIRYIYNRVKSGSPGDSSWHIYLKSGTCPFSFSKLNNFQKFKTICFSTVEVPGSCNFPLEATWHYTSYTIVGALYVTWSEGNSITGVPYPVSGIREFSNLVLNNCTKYNIYDYVGTGIIRSSNQSLAGGITYVSNSGNLLGFKNVSTGNIFIVTPCNQPDQVAVYQQSIIGAMTAVNESRYGLQNLLQLPNFYYVSNGGNNCTTAVMTYSNFGICADGSLIPVRPRNSSDNGISAIITANLSIPSNWTTSVQVEYLQITSTPIVVDCATYVCNGNPRCKNLLKQYTSACKTIEDALRLSAHLETNDVSSMLTFDSNAFSLANVTSFGDYNLSSVLPQRNIRSSRIAGRSALEDLLFSKVVTSGLGTVDVDYKSCTKGLSIADLACAQYYNGIMVLPGVADAERMAMYTGSLIGGMVLGGLTSAAAIPFSLALQARLNYVALQTDVLQENQKILAASFNKAINNIVASFSSVNDAITQTAEAIHTVTIALNKIQDVVNQQGSALNHLTSQLRHNFQAISNSIQAIYDRLDSIQADQQVDRLITGRLAALNAFVSQVLNKYTEVRGSRRLAQQKINECVKSQSNRYGFCGNGTHIFSIVNSAPDGLLFLHTVLLPTDYKNVKAWSGICVDGIYGYVLRQPNLVLYSDNGVFRVTSRVMFQPRLPVLSDFVQIYNCNVTFVNISRVELHTVIPDYVDVNKTLQEFAQNLPKYVKPNFDLTPFNLTYLNLSSELKQLEAKTASLFQTTVELQGLIDQINSTYVDLKLLNRFENLIKRMKQIEDKIEEIESKQKKIENEIARIKKIKLVPRGSLE
modifications: N-linked glycans (glycosylation shown at 34 of 39 NXS/T sequons; paucimannosidic or high-mannose)
Q: Which “stoichiometry N” value does the source give for B1 here?
A: 3
